Experimental data published in the Human Domainome abundance scans (Beltran et al. 2025).
± gives the uncertainty stated by the source.

Experiment: abundance fitness (aPCA) (normalised: wild type 0, dead -1); higher = more abundant; growth selection in yeast, the domain comes from the species named
Conditions: Homo sapiens

Row | Substance | abundance fitness
1 | Transcriptional activator Myb I155A, P10242 | -0.503 ± 0.065
2 | Transcriptional activator Myb I155C, P10242 | -0.346 ± 0.095
3 | Transcriptional activator Myb I155D, P10242 | -0.779 ± 0.15
4 | Transcriptional activator Myb I155E, P10242 | -0.521 ± 0.092
5 | Transcriptional activator Myb I155F, P10242 | -0.467 ± 0.14
6 | Transcriptional activator Myb I155G, P10242 | -0.894 ± 0.064
7 | Transcriptional activator Myb I155H, P10242 | -1.04 ± 0.21
8 | Transcriptional activator Myb I155K, P10242 | -0.736 ± 0.11
9 | Transcriptional activator Myb I155L, P10242 | -0.068 ± 0.069
10 | Transcriptional activator Myb I155M, P10242 | -0.178 ± 0.12
11 | Transcriptional activator Myb I155N, P10242 | -0.645 ± 0.17
12 | Transcriptional activator Myb I155P, P10242 | -0.945 ± 0.14
13 | Transcriptional activator Myb I155Q, P10242 | -0.786 ± 0.13
14 | Transcriptional activator Myb I155R, P10242 | -0.935 ± 0.067
15 | Transcriptional activator Myb I155S, P10242 | -0.916 ± 0.13
16 | Transcriptional activator Myb I155T, P10242 | -0.535 ± 0.083
17 | Transcriptional activator Myb I155V, P10242 | -0.187 ± 0.075
18 | Transcriptional activator Myb I155Y, P10242 | -1.21 ± 0.21
19 | Transcriptional activator Myb I169A, P10242 | -0.477 ± 0.1
20 | Transcriptional activator Myb I169C, P10242 | -0.521 ± 0.14
21 | Transcriptional activator Myb I169D, P10242 | -0.679 ± 0.13
22 | Transcriptional activator Myb I169E, P10242 | -0.641 ± 0.12
23 | Transcriptional activator Myb I169F, P10242 | -0.516 ± 0.12
24 | Transcriptional activator Myb I169G, P10242 | -0.681 ± 0.071
25 | Transcriptional activator Myb I169H, P10242 | -0.799 ± 0.22
26 | Transcriptional activator Myb I169K, P10242 | -1.05 ± 0.15
27 | Transcriptional activator Myb I169L, P10242 | -0.427 ± 0.086

Row | Substance | abundance fitness
28 | Transcriptional activator Myb I169M, P10242 | -0.18 ± 0.093
29 | Transcriptional activator Myb I169N, P10242 | -0.91 ± 0.14
30 | Transcriptional activator Myb I169P, P10242 | -0.734 ± 0.12
31 | Transcriptional activator Myb I169Q, P10242 | -0.677 ± 0.16
32 | Transcriptional activator Myb I169R, P10242 | -0.784 ± 0.071
33 | Transcriptional activator Myb I169S, P10242 | -0.642 ± 0.076
34 | Transcriptional activator Myb I169T, P10242 | -0.567 ± 0.11
35 | Transcriptional activator Myb I169V, P10242 | -0.343 ± 0.094
36 | Transcriptional activator Myb I169W, P10242 | -1.08 ± 0.18
37 | Transcriptional activator Myb I169Y, P10242 | -0.147 ± 0.097
38 | Transcriptional activator Myb I181A, P10242 | -0.569 ± 0.084
39 | Transcriptional activator Myb I181D, P10242 | -1 ± 0.17
40 | Transcriptional activator Myb I181E, P10242 | -0.64 ± 0.11
41 | Transcriptional activator Myb I181F, P10242 | -1.16 ± 0.38
42 | Transcriptional activator Myb I181G, P10242 | -1.01 ± 0.07
43 | Transcriptional activator Myb I181H, P10242 | -1.17 ± 0.25
44 | Transcriptional activator Myb I181K, P10242 | -1.34 ± 0.35
45 | Transcriptional activator Myb I181L, P10242 | -0.365 ± 0.094
46 | Transcriptional activator Myb I181N, P10242 | -0.658 ± 0.35
47 | Transcriptional activator Myb I181P, P10242 | -0.881 ± 0.25
48 | Transcriptional activator Myb I181Q, P10242 | -0.756 ± 0.13
49 | Transcriptional activator Myb I181R, P10242 | -0.933 ± 0.081
50 | Transcriptional activator Myb I181S, P10242 | -0.694 ± 0.086
51 | Transcriptional activator Myb I181T, P10242 | -0.278 ± 0.094
52 | Transcriptional activator Myb I181V, P10242 | -0.036 ± 0.07
53 | Transcriptional activator Myb I181W, P10242 | -1.26 ± 0.2
54 | Transcriptional activator Myb K143A, P10242 | 0.049 ± 0.15
